Experiment [1] concerns the target HCV-E2蛋白 (Hepatitis C virus (HCV)). The experiment in a line: SPR, BiaCore X-100; antibody captured by goat anti-human IgG on CM5 chip, HCV-E2 as analyte. For orientation: In SPR one partner is held on a chip, and binding of the other changes the refractive index at the surface.
The target of experiment [2] is 不同的HCV包膜糖蛋白 (on HCV pseudovirus, HCVpp). Put plainly: cell-based or functional assay.

B1: 全人源抗HCV的单克隆中和抗体TRN1001 (antibody, V domains shown)
VH: QVQLVQSGAEVKKPGSSVKVSCKVSGDRINNYAINWVRQAPGQGLEWMGRIIGIVGLANYAQKFQGRVTMTADKSTSTGYMELSTLKSDDTAMYYCATDNRILAAAPSHYSYSMDLWGPGTTVTVSS
VL: QSALTQPASVSGSPGQSITISCTGTSSDVGGDNYVSWYQQYTGKAPKVMIYDVSKRPSGVSNRFSGSKSGNTASLTISGLQAEDEADYYCCSYTSDNSYVFGSGTKVIVL
In experiment [1], B1 had a Kd of 20.3 nM, a koff of 0.00011 s⁻¹ and a kon of 5440 M⁻¹ s⁻¹. The Luciferase活性 (荧光值), HCVpp infection of Huh7 cells in experiment [2] amounted to 100%.

A word on the Kd: it is the free concentration of one partner at which half of the binding sites on the other are occupied at equilibrium, for simple one-to-one binding. Low readings indicate higher affinity, high ones lower affinity. A word on the koff: it is a measure of how fast the partners let go of each other. Usually kon stands for the second-order rate constant of association. Lower therefore signals slower complex formation.

These data come from patent CN106749644A.
